Measurements reported in PMC8792056 (2022).

B1: DNAJB14-FL-FLAG [human] / DNAJB12-FL-mOrange [human] (parent complex)
chain 1: MEGNRDEAEKCVEIAREALNAGNREKAQRFLQKAEKLYPLPSARALLEIIMKNGSTAGNSPHCRKPSGSGDQSKPNCTKDSTSGSGEGGKGYTKDQVDGVLSINKCKNYYEVLGVTKDAGDEDLKKAYRKLALKFHPDKNHAPGATDAFKKIGNAYAVLSNPEKRKQYDLTGNEEQACNHQNNGRFNFHRGCEADITPEDLFNIFFGGGFPSGSVHSFSNGRAGYSQQHQHRHSGHEREEERGDGGFSVFIQLMPIIVLILVSLLSQLMVSNPPYSLYPRSGTGQTIKMQTENLGVVYYVNKDFKNEYKGMLLQKVEKSVEEDYVTNIRNNCWKERQQKTDMQYAAKVYRDDRLRRKADALSMDNCKELERLTSLYKGG
chain 2: MESNKDEAERCISIALKAIQSNQPDRALRFLEKAQRLYPTPRVRALIESLNQKPQTAGDQPPPTDTTHATHRKAGGTDAPSANGEAGGESTKGYTAEQVAAVKRVKQCKDYYEILGVSRGASDEDLKKAYRRLALKFHPDKNHAPGATEAFKAIGTAYAVLSNPEKRKQYDQFGDDKSQAARHGHGHGDFHRGFEADISPEDLFNMFFGGGFPSSNVHVYSNGRMRYTYQQRQDRRDNQGDGGLGVFVQLMPILILILVSALSQLMVSSPPYSLSPRPSVGHIHRRVTDHLGVVYYVGDTFSEEYTGSSLKTVERNVEDDYIANLRNNCWKEKQQKEGLLYRARYFGDTDMYHRAQKMGTPSCSRLSEVQASLHG

Variants of: B1
Assay: co-IP (IP: FLAG, WB: mOrange), densitometry with Fiji; HEK293T cells; n = 3 biologically independent samples; parent: 2.7; read off a plot

**Q.** For chain 1 MEGNRDEAEKCVEIAREALNAGNREKAQRFLQKAEKLYPLPSARALLEIIMKNGSTAGNSPHCRKPSGSGDQSKPNCTKDSTSGSGEGGKGYTKDQVDGVLSINKCKNYYEVLGVTKDAGDEDLKKAYRKLALKFQPDKNHAPGATDAFKKIGNAYAVLSNPEKRKQYDLTGNEEQACNHQNNGRFNFHRGCEADITPEDLFNIFFGGGFPSGSVHSFSNGRAGYSQQHQHRHSGHEREEERGDGGFSVFIQLMPIIVLILVSLLSQLMVSNPPYSLYPRSGTGQTIKMQTENLGVVYYVNKDFKNEYKGMLLQKVEKSVEEDYVTNIRNNCWKERQQKTDMQYAAKVYRDDRLRRKADALSMDNCKELERLTSLYKGG [chain 1 H136Q], which response is on record?
**A.** ~7.2 [ORANGE]/[FLAG]
